Experiments:
[1] = target: T1, FtsR-Strep (Corynebacterium glutamicum ATCC13032) (UniProt Q8NQJ2); experiment: competition; settings: EMSA: 10 mM Tris-HCl pH 7.5, 30 mM NaCl, 1.5 mM Na2EDTA, room temperature, 30 min; 15% native PAGE in 1x TBE (competition EMSA: 10% gel)
T1 sequence: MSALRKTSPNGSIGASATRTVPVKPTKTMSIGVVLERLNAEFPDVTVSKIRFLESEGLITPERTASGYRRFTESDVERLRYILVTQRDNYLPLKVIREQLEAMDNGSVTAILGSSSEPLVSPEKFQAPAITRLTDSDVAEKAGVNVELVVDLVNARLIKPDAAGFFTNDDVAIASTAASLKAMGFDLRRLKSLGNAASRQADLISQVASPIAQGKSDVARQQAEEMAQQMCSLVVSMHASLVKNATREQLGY

[2] = target: T1, FtsR-Strep (Corynebacterium glutamicum ATCC13032); experiment: EMSA; settings: EMSA: 10 mM Tris-HCl pH 7.5, 30 mM NaCl, 1.5 mM Na2EDTA, room temperature, 30 min; 15% native PAGE in 1x TBE (competition EMSA: 10% gel)
[3] = target: FtsR-Strep (FtsR, Cg1631, of Corynebacterium glutamicum ATCC13032 with C-terminal StrepTag-II) (Corynebacterium glutamicum ATCC13032); experiment: SEC; affinity-purified FtsR-Strep on Superdex 200 Increase 10/300 GL, buffer W (50 mM Tris-HCl, 250 mM NaCl, pH 7.5), 0.6 mL/min; compared to standard proteins
[4] = target: T2, FtsR-Strep (Corynebacterium glutamicum ATCC13032, UniProt Q8NQJ2 1-252); experiment: EMSA; 1 uM DNA; complete shift at 2-fold molar excess of dimer; EMSA: 10 mM Tris-HCl pH 7.5, 30 mM NaCl, 1.5 mM Na2EDTA, room temperature, 30 min; 15% native PAGE in 1x TBE (competition EMSA: 10% gel); settings: protein: recombinant; chain copies: 2; blunt
T2 sequence: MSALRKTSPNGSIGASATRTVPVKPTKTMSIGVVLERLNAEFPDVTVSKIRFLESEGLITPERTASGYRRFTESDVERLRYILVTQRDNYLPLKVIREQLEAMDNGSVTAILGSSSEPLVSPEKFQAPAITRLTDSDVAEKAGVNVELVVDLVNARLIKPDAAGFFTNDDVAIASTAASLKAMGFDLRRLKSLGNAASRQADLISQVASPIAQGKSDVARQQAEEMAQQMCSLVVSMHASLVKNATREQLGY

AGTGCTTCCTGCGGTTATTGCTGTAATCAACGCAATTAAAGCGCAAGATGCGCAGATGACAGAAAGTATCCAGGTAGTGGAAGCTCCGGATCAATTTGATATCTTGCTGAAAATGAATGATGGCCGGGAAATCTACTGGGGATCCTCGGAAAACAACCACGATAAAGCGGTGGCAATGTCGACTGTTTTGAAGCGGGAAGGCCAACGTTGGAACATTAGCTCACCCTCAATGGTGACAGTCCGCTAAAGTGGCTGGGTAG (double strand)
binding [1]: no binding

AGTTCCGGTTCACCCGTTTCCACAACGCGTTTGCCCACCTCAACAACCCTAAAGTAAAGGTTGAGGGTAGCGACACGCCGCTGTAAATGTCCGACACATTGACGTGTTTTTCGCACAAGATATATGTCAGCCGGATTAACACTTTTAGATAAGCTCTCACAGTGCTGACTGCTTATCTGAGATGAAAATAAAAGCAAAATTTTTTTTAGTATCAACTCTTCGAAAGGCGAGACATCGACAATGACCTCACCGAACAACTACCTCGCCAAGA (double strand) [ftsZ promoter 271-bp fragment, Cy3]
binding [2]: binds

AGTTCCGGTTCACCCGTTTCCACAACGCGTTTGCCCACCTCAACAACCCTAAAGTAAAGGTTGAGGGTAGCGACACGCCGCTGTAAATGTCCGACACATTGACGTGTTTTTCGCACAAGATATATGTCAGCCGGATTAACACTTTTAGATAAGCTCTCACAGTGCTGACTGCTTATCTGAGATGAAAATAAAAGCAAAATTTTTTTTAGTATCAACTCTTCGAAAGGCGAGACATCGACAATGACCTCACCGAACAACTACCTCGCCAAGA (double strand) [ftsZ promoter 271-bp fragment, unlabeled specific competitor]
binding [1]: binds

FtsR-Strep (FtsR, Cg1631, of Corynebacterium glutamicum ATCC13032 with C-terminal StrepTag-II) (natural protein)
stoichiometry N [3]: 2

B1: ftsZ promoter 30-bp oligo (dsDNA)
DNA 1: ACAACCCTAAAGTAAAGGTTGAGGGTAGCG
DNA 2: CGCTACCCTCAACCTTTACTTTAGGGTTGT
binding result [4]: binds
